Measurements from patent publication US20260209789A1, “TRIGGER-INDUCIBLE MRNA CIRCULARIZATION” (WESTLAKE UNIVERSITY, priority 2022, published 2026).

Key:
[1] = test system: STIF-specific target gene mRNA; experiment: Translational regulation by constitutive bipartite STIF reconstitution (SEAP, NanoLuc) in HEK-293 cells; format: cell-based, human; conditions: 48 h
Excerpt: FIG. 8. Translational regulation by spontaneous assembly of bipartite STIFs. (A) Translational regulation through constitutive STIF reconstitution. […] Transfection of pcDNA3.1 (+) instead of NSP3-fusion proteins was used as a negative control. […] (B) Compatibility of STIF-mediated translational regulation with split-complementation approaches. […] For (−) conditions, pcDNA3.1 (+) was transfected instead of expression vectors.
FIG. 9. Translational regulation through constitutive Coh2/DocS-mediated STIF reconstitution. (A) Site-specific translational activation by eIFBP overexpression. HEK-293 cells were (co-) transfected with an expression vector for SEAP-mRNA containing 24 tandem C/D-box-(left panel, pSL355) or MS2-box repeats in the 3′-UTR (right panel, pSL468), constitutive expression vectors for L7Ae (left) or MCP (right) fused to Coh2 (L7Ae-Coh2, pSL83; MCP-Coh2, pSL674) or EGFP (L7Ae-EGFP, pSL1078; MCP-EGFP, pSL435) and constitutive expression vectors for various chimeric Coh2-specific DocS-containing eIFBP fusions (PABP-DocS, pSL47; DocS-eIF4G, pSL87; DocS-eIF4E, pLZ312; DocS-NSP3, pSL66; DocS-VPg, pLZ311). Transfection of pcDNA3.1 (+) instead of DocS- or MCP-expressing vectors was used as a negative control. […] SEAP (left) and NanoLuc levels in culture supernatants (right) were quantified at 48 h post-transfection. […]

endogenous RNA (GAPDH) = experiment: RIP-qPCR: endogenous RNA binding of PABP- and NSP3-fusion proteins; set-up: species or system human; conditions: 3×FLAG-tagged L7Ae-NSP3 vs PABP-L7Ae, 48 h
Excerpt: RNA immunoprecipitation (RIP)-qPCR.

nNS3 = conditions: different amounts of overexpressed nNS3, 48 h
(DocS)3 = target: T1, (DocS)3 (Acetivibrio thermocellus, UniProt A3DH67); experiment: Coh2/DocS-based STIF protein sensor for cytosolic (DocS)3; conditions: different amounts of pSL244, 48 h
T1 sequence (A3DH67 with tags, fused parts or gaps): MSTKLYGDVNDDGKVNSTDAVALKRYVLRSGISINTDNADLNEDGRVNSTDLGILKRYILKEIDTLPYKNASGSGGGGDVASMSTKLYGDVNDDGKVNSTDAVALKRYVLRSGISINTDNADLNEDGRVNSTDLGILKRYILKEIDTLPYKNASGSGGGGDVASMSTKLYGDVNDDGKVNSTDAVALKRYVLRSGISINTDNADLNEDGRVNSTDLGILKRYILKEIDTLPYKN

GNCR: NS3a system = experiment: Grazoprevir-inducible SEAP translation in HEK-293 cells (fold-change, dose-dependence, kinetics vs transcriptional switch); conditions: three tandem GNCR and NS3a repeats
Excerpt: Optimization of an L7Ae-based grazoprevir-inducible gene switch. (A) Translational regulation by grazoprevir-dependent STIF association. […] (B) Translational regulation by different grazoprevir-dependent NSP3-fusion proteins. […] (C) Translational regulation by different grazoprevir-dependent L7Ae-fusion proteins.
Optimized L7Ae- and MCP-based grazoprevir-inducible gene switch in mammalian cells. (A) Optimized grazoprevir-inducible regulation of SEAP translation. […] (B, C) Dose-dependent grazoprevir-inducible SEAP expression.
Comparative analysis of gene switches based on STIF-based translation and state-of-the-art transcription-centered designs. (A) Kinetics of grazoprevir-inducible SEAP expression. […] (B) Endpoint performance of grazoprevir-induced translational and transcriptional gene switch switches.

BCR-ABL = experiment: Co-immunoprecipitation: BCR-ABL-mediated association of STIF components; format: binding, human; conditions: HEK-293 cells, 48 h
Chain of BCR-ABL (as listed by the source): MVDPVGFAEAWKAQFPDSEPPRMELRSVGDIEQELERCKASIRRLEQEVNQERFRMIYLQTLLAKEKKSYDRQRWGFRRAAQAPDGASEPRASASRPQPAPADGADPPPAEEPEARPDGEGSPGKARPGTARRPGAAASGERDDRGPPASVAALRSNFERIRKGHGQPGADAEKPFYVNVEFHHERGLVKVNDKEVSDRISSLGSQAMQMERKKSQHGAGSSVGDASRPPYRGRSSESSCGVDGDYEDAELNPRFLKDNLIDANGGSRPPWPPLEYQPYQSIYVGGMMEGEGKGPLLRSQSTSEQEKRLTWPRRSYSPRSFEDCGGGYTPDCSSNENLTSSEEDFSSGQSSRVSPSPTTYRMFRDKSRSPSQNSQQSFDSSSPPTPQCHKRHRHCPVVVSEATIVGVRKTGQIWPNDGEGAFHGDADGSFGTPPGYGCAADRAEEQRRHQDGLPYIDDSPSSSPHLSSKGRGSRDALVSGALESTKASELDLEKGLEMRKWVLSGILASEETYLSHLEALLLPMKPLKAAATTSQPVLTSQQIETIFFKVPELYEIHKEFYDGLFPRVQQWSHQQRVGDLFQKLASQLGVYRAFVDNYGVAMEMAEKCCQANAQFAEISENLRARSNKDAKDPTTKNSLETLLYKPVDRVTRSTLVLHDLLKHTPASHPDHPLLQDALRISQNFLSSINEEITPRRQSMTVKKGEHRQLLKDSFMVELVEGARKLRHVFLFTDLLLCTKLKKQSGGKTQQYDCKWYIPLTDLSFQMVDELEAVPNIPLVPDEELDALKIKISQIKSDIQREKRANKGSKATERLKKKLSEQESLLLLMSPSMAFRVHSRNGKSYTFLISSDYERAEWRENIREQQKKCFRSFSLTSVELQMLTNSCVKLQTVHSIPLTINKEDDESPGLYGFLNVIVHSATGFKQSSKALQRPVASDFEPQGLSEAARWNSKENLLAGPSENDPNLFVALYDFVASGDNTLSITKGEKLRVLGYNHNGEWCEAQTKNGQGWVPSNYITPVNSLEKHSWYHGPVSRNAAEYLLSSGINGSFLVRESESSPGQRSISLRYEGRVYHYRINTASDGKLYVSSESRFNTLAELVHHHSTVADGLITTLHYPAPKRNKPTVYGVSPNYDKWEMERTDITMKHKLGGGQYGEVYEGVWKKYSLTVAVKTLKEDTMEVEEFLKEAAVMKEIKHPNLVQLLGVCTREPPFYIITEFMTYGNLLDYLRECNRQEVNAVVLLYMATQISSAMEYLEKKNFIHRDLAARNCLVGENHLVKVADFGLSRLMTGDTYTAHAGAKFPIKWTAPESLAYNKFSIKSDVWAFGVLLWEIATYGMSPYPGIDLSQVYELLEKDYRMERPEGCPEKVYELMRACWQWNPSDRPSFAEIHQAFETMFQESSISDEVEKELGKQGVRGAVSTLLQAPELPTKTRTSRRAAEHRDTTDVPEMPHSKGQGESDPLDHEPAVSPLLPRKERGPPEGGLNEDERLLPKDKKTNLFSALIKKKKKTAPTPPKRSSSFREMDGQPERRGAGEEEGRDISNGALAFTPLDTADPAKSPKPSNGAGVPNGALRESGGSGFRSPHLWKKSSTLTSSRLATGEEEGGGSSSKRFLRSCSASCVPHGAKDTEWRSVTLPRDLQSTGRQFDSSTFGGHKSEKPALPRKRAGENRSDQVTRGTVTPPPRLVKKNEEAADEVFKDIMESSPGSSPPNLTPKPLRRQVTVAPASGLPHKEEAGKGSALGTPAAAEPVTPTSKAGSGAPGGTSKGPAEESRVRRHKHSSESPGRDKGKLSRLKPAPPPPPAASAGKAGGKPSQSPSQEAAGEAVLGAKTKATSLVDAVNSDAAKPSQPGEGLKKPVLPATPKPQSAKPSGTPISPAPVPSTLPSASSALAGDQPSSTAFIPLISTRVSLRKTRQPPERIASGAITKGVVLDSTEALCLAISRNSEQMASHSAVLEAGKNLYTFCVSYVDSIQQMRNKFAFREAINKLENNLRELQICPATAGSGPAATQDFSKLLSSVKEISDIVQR

B1: (DocS)3-NSP3: bipartite STIF regulator (protein)
chain: MSTKLYGDVNDDGKVNSTDAVALKRYVLRSGISINTDNADLNEDGRVNSTDLGILKRYILKEIDTLPYKNASGSGGGGDVASMSTKLYGDVNDDGKVNSTDAVALKRYVLRSGISINTDNADLNEDGRVNSTDLGILKRYILKEIDTLPYKNASGSGGGGDVASMSTKLYGDVNDDGKVNSTDAVALKRYVLRSGISINTDNADLNEDGRVNSTDLGILKRYILKEIDTLPYKNASGSGGGGDVASMLKMESTQQMASSIINTSFEAAVVAATSTLELMGIQYDYNEVYTRVKSKFDYVMDDSGVKNNLLGKAATIDQALNGKFGSAARNRNWMADTRTTARLDEDVNKLRMMLSSKGIDQKMRVLNACFNVKRVPGKSSSIIKCTRLMRDKIERGEVEVDDSFVEEKMEVDTIDWKSRYEQLEKRFESLKQRVNEKYTSWVQKAKKVNENMYSLQNVISQQQSQIADLQNYCNKLEVDLQNKISSLVSSVEWYLKSMELPDEIKTDIEQQLNSIDVINPINAIDDFESLIRNIILDYDRIFLMFKGLMRQCNYEYTYE
- target gene translation by spontaneous STIF assembly (SEAP) [1]: modular and effective translational regulation

B2: NSP3: rotaviral non-structural protein 3 (protein)
chain: LKMESTQQMASSIINTSFEAAVVAATSTLELMGIQYDYNEVYTRVKSKFDYVMDDSGVKNNLLGKAATIDQALNGKFGSAARNRNWMADTRTTARLDEDVNKLRMMLSSKGIDQKMRVLNACFNVKRVPGKSSSIIKCTRLMRDKIERGEVEVDDSFVEEKMEVDTIDWKSRYEQLEKRFESLKQRVNEKYTSWVQKAKKVNENMYSLQNVISQQQSQIADLQNYCNKLEVDLQNKISSLVSSVEWYLKSMELPDEIKTDIEQQLNSIDVINPINAIDDFESLIRNIILDYDRIFLMFKGLMRQCNYEYTYE
- non-specific binding to endogenous RNA (GAPDH RNA IP/input) (endogenous RNA (GAPDH)): much less non-specific binding to endogenous RNA than PABP

B3: (scFv162)3-NSP3: bipartite STIF regulator (protein)
chain: MAEVQVQQSGAELVRSGASVKLSCTASGFNIKDYYMHWVKQRPEQGLEWIGWIDPANGNTKYDPKFQGKATITADTSSNTAYLQLSSLTSEDTAVYYCARWDWYFDVWGAGTTVTVSSGGGGSGGGGSGGGGSVFASGSGGGGDVASMAEVQVQQSGAELVRSGASVKLSCTASGFNIKDYYMHWVKQRPEQGLEWIGWIDPANGNTKYDPKFQGKATITADTSSNTAYLQLSSLTSEDTAVYYCARWDWYFDVWGAGTTVTVSSGGGGSGGGGSGGGGSVFASGSGGGGDVASMAEVQVQQSGAELVRSGASVKLSCTASGFNIKDYYMHWVKQRPEQGLEWIGWIDPANGNTKYDPKFQGKATITADTSSNTAYLQLSSLTSEDTAVYYCARWDWYFDVWGAGTTVTVSSGGGGSGGGGSGGGGSVFASGSGGGGDVASMLKMESTQQMASSIINTSFEAAVVAATSTLELMGIQYDYNEVYTRVKSKFDYVMDDSGVKNNLLGKAATIDQALNGKFGSAARNRNWMADTRTTARLDEDVNKLRMMLSSKGIDQKMRVLNACFNVKRVPGKSSSIIKCTRLMRDKIERGEVEVDDSFVEEKMEVDTIDWKSRYEQLEKRFESLKQRVNEKYTSWVQKAKKVNENMYSLQNVISQQQSQIADLQNYCNKLEVDLQNKISSLVSSVEWYLKSMELPDEIKTDIEQQLNSIDVINPINAIDDFESLIRNIILDYDRIFLMFKGLMRQCNYEYTYE
- activation of translation of L7Ae-specific target mRNA (SEAP) (nNS3): in a strict nNS3-dependent manner

B4: (Coh2)3-NSP3: bipartite STIF regulator (protein)
chain: MVVVEIGKVTGSVGTTVEIPVYFRGVPSKGIANCDFVFRYDPNVLEIIGIDPGDIIVDPNPTKSFDTAIYPDRKIIVFLFAEDSGTGAYAITKDGVFAKIRATVKSSAPGYITFDEVGGFADNDLVEQKVSFIDGGVNVASGSGGGGDVASVVVEIGKVTGSVGTTVEIPVYFRGVPSKGIANCDFVFRYDPNVLEIIGIDPGDIIVDPNPTKSFDTAIYPDRKIIVFLFAEDSGTGAYAITKDGVFAKIRATVKSSAPGYITFDEVGGFADNDLVEQKVSFIDGGVNVASGSGGGGDVASVVVEIGKVTGSVGTTVEIPVYFRGVPSKGIANCDFVFRYDPNVLEIIGIDPGDIIVDPNPTKSFDTAIYPDRKIIVFLFAEDSGTGAYAITKDGVFAKIRATVKSSAPGYITFDEVGGFADNDLVEQKVSFIDGGVNVASGSGGGGDVASMLKMESTQQMASSIINTSFEAAVVAATSTLELMGIQYDYNEVYTRVKSKFDYVMDDSGVKNNLLGKAATIDQALNGKFGSAARNRNWMADTRTTARLDEDVNKLRMMLSSKGIDQKMRVLNACFNVKRVPGKSSSIIKCTRLMRDKIERGEVEVDDSFVEEKMEVDTIDWKSRYEQLEKRFESLKQRVNEKYTSWVQKAKKVNENMYSLQNVISQQQSQIADLQNYCNKLEVDLQNKISSLVSSVEWYLKSMELPDEIKTDIEQQLNSIDVINPINAIDDFESLIRNIILDYDRIFLMFKGLMRQCNYEYTYE
- detection of cytosolic (DocS)3 (SEAP) ((DocS)3): in a dose-dependent manner

B5: (GNCR)3-NSP3: trigger-inducible STIF regulator (protein)
chain: MDIEKLCKKAEEEAKEAQEKADELRQRHPDSQAAEDAEDLANLAVAAVLTACLLAQEHPNADIAKLCIKAASEAAEAASKAAELAQRHPDSQAARDAIKLASQAARAVILAIMLAAENPNADIAKLCIKAASEAAEAASKAAELAQRHPDSQAARDAIKLASQAAEAVERAIWLAAENPNADIAKKCIKAASEAAEEASKAAEEAQRHPDSQKARDEIKEASQKAEEVKERCKSASGSGGGGDVASDIEKLCKKAEEEAKEAQEKADELRQRHPDSQAAEDAEDLANLAVAAVLTACLLAQEHPNADIAKLCIKAASEAAEAASKAAELAQRHPDSQAARDAIKLASQAARAVILAIMLAAENPNADIAKLCIKAASEAAEAASKAAELAQRHPDSQAARDAIKLASQAAEAVERAIWLAAENPNADIAKKCIKAASEAAEEASKAAEEAQRHPDSQKARDEIKEASQKAEEVKERCKSASGSGGGGDVASDIEKLCKKAEEEAKEAQEKADELRQRHPDSQAAEDAEDLANLAVAAVLTACLLAQEHPNADIAKLCIKAASEAAEAASKAAELAQRHPDSQAARDAIKLASQAARAVILAIMLAAENPNADIAKLCIKAASEAAEAASKAAELAQRHPDSQAARDAIKLASQAAEAVERAIWLAAENPNADIAKKCIKAASEAAEEASKAAEEAQRHPDSQKARDEIKEASQKAEEVKERCKSASGSGGGGDVASMLKMESTQQMASSIINTSFEAAVVAATSTLELMGIQYDYNEVYTRVKSKFDYVMDDSGVKNNLLGKAATIDQALNGKFGSAARNRNWMADTRTTARLDEDVNKLRMMLSSKGIDQKMRVLNACFNVKRVPGKSSSIIKCTRLMRDKIERGEVEVDDSFVEEKMEVDTIDWKSRYEQLEKRFESLKQRVNEKYTSWVQKAKKVNENMYSLQNVISQQQSQIADLQNYCNKLEVDLQNKISSLVSSVEWYLKSMELPDEIKTDIEQQLNSIDVINPINAIDDFESLIRNIILDYDRIFLMFKGLMRQCNYEYTYE
- regulation performance (fold-change, dose-dependence, activation kinetics) (GNCR: NS3a system): best regulation performance

B6: CCmut3-NSP3: bipartite STIF regulator (protein)
chain: MVDPVGFAEAWKAQFPDSEPPRMELRSVGDIEQELERAEARIRRNEQRVNQERFRMIYLETLLAKEKKSYDRASGSGGGGDVASMLKMESTQQMASSIINTSFEAAVVAATSTLELMGIQYDYNEVYTRVKSKFDYVMDDSGVKNNLLGKAATIDQALNGKFGSAARNRNWMADTRTTARLDEDVNKLRMMLSSKGIDQKMRVLNACFNVKRVPGKSSSIIKCTRLMRDKIERGEVEVDDSFVEEKMEVDTIDWKSRYEQLEKRFESLKQRVNEKYTSWVQKAKKVNENMYSLQNVISQQQSQIADLQNYCNKLEVDLQNKISSLVSSVEWYLKSMELPDEIKTDIEQQLNSIDVINPINAIDDFESLIRNIILDYDRIFLMFKGLMRQCNYEYTYE
- assembly of STIF components upon BCR-ABL overexpression (co-IP) (BCR-ABL): triggers assembly
